Article PMC5858142, “A novel cold-adapted esterase from Enterobacter cloacae: Characterization and improvement of its activity and thermostability via the site of Tyr193Cys” (Microbial Cell Factories, 2018)

Columns and labels:
Lip = settings: optimal pH 9.0, 40 °C; substrate not named, taken as pNPA (best substrate)
[1] = tested on: CC(=O)Oc1ccc([N+](=O)[O-])cc1; assay: purified protein; settings: optimal pH 8.5, 40 °C, substrate not named, taken as pNPA (best substrate)

With CC(=O)Oc1ccc([N+](=O)[O-])cc1 [C2, p-nitrophenyl acetate] as the molecule, how does the Km (Lip) read?
The Km was 363 ± 30 µM.

With Lip (Enterobacter cloacae) as the molecule, how does the Km [1] read?
Its Km is 643 ± 30 µM.

What about the kcat [1] of the same molecule?
The kcat was 9.8 ± 0.09 s⁻¹.

And the kcat/Km [1]?
Its kcat/Km is 15200 ± 210 M⁻¹ s⁻¹.
